According to patent US9518995B2, “FKBP52-Tau interaction as a novel therapeutical target for treating the neurological disorders involving Tau dysfunction” (Institut National de la Sante et de la Recherche Medicale …, priority 2009, dated 2016):

Key:
H7C2 cells [1] = test: FKBP52 induction in H7C2 cells (Western blot); assay type: cell-based, rat; settings: after 5 days of Dox treatment
Protocol: Generation of H7C2 cells: The cDNA encoding rabbit FKBP52 was inserted into the HindIII and AccI restriction sites of the pTRE2 vector (Clontech) in order to give pTRE2-FKBP52. Transfection of 100 μg of pTR2-FKBP52 and 10 μg of pTK-hygromicin was carried out in a commercially available PC12 Tet-on cell line (Clontech) that expresses the reverse tetracycline controlled transactivator, using Lipofectamine™ (Invitrogen). Stably transfected cells were selected with 100 μg/ml hygromycin and screened individually. Cell culture: PC12 cells and H7C2 cells were grown in DMEM containing 10% (v/v) horse serum and 5% (v/v) FBS (Invitrogen) at 37° C. in 90% […]/10% CO2. The differentiated neuronal phenotype of cells grown on plastic dishes coated with 10 μg/ml poly(L)-lysine (Sigma), was induced by adding nerve growth factors (NGF) (Invitrogen) for 5 days. Primary cultures from cerebral cortex of embryonic day 17rat foetuses were carried out. Dissociated cells were plated (50,000 cells per ml) on glass coverslips coated with poly(L-ornithine) and cultured in a defined medium in 95% O2/5% CO2 at 37° C.

H7C2 cells [2] = test: Quantitation of neurite outgrowth; assay type: cell-based, rat; settings: 50 nM NGF and Dox, compared to H7C2 not treated with Dox
Protocol: Cell culture: PC12 cells and H7C2 cells were grown in DMEM containing 10% (v/v) horse serum and 5% (v/v) FBS (Invitrogen) at 37° C. in 90% O2/10% CO2. The differentiated neuronal phenotype of cells grown on plastic dishes coated with 10 μg/ml poly(L)-lysine (Sigma), was induced by adding nerve growth factors (NGF) (Invitrogen) for 5 days. Primary cultures from cerebral cortex of embryonic day 17rat foetuses were carried out. Dissociated cells were plated (50,000 cells per ml) on glass coverslips coated with poly(L-ornithine) and cultured in a defined medium in 95% O2/5% CO2 at 37° C. Quantitation of neurite outgrowth: Random field photographs of PC12 and H7C2 cells, in each of three wells, were analyzed with Neuron J software. The average neurite length was determined by measuring the longest neurites of at least 200 cells randomly selected.

[3] = target: T1, HP-Tau (hyperphosphorylated recombinant hT40) (Homo sapiens, UniProt P10636); test: Dot blot assay, FKBP52 captured by spotted HP-Tau; assay type: binding; settings: 2.2 μg HP-Tau spotted; 0.5 μg FKBP52
T1 construct: made in house; host or cells: E. coli; then phosphorylated in vitro with adult rat brain cytosol in the presence of okadaic acid
Protocol: (§1) Phosphorylation and hyperphosphorylation of recombinant Tau: Rat brain extract was used as the source of kinase activity, as described (18). Briefly, recombinant hT40 was incubated with cytosol of adult rat brain, in the presence or absence of okadaic acid, to give HP-Tau (hyperphosphorylated-Tau) and P-Tau (phosphorylated-Tau), respectively.
(§2) Dot blot assay: 100 μl of buffer A containing different amounts of hT40 were applied to a nitrocellulose membrane, blocked with 5% non-fat milk in phosphate-buffered saline (PBS) containing 0.1% Tween 20 (PBS-T) at room temperature, washed with PBS-T and buffer A, followed by 2 h incubation at room temperature with 100 μl of buffer A containing […] recombinant FKBP52. The membranes were washed with buffer IP (50 mM Tris (pH 7.5)/150 mM NaCl/2 mM MgCl2/0.1% Brij97 (Sigma)/10% glycerol/protease inhibitors) and with PBS-T. After blocking with milk in PBS-T, the membranes were incubated with anti-FKBP52 761 antibody. […] Quantitation was performed with Quantity-one software using Chemidoc XRS fitted with a 16 bit CCD camera (Biorad).

[4] = target: T2, P-Tau (phosphorylated recombinant hT40) (Homo sapiens, UniProt P10636); test: Dot blot assay, FKBP52 captured by spotted P-Tau; assay type: binding; settings: same amount (2.2 μg) P-Tau as bait; 0.5 μg FKBP52
T2 construct: made in house; host or cells: E. coli; then phosphorylated in vitro with adult rat brain cytosol without okadaic acid
Protocol: as §1, §2

recombinant Tau (hT40) = target: T3, recombinant Tau (hT40) (Homo sapiens, UniProt P10636); test: Dot blot assay, FKBP52 captured by spotted recombinant Tau; assay type: binding
T3 construct: made in house; host or cells: E. coli
Protocol: as §2

[5] = target: T4, tubulin polymerization induced by recombinant human Tau isoforms (Homo sapiens, UniProt P10636); test: Microtubule assembly assay (tubulin polymerization induced by recombinant Tau isoforms); assay type: biochemical, rat; settings: tubulin 1 mg/ml, 1.7 μM Tau isoforms, 3.5 μM protein, turbidity at 345 nm
T4 construct: made in house; host or cells: Tau: E. coli; tubulin: adult Sprague-Dawley rat brain
Protocol: Preparation of Tubulin and microtubule assembly assay: Male adult Sprague-Dawley rats (body weight ˜250 g) were obtained from Janvier (Le Genest-St.-Isle, France). They were killed by decapitation, according to institutional guidelines, and whole brains were used immediately to prepare tubulin as described (9). Microtubule assembly assays were performed as in (9).
Protein purification and Overexpression of different Tau isoforms and FKBP52 protein: The six isoforms of human brain Tau were expressed in E. coli from clones hT40, hT39, hT37, hT34, hT24, hT23 and purified as described (28). Full length FKBP52 was affinity purified as in (23). For the Tubulin polymerization assay, FKBP52 bound to glutathione-Sepharose beads (GE Healthcare) were cleaved overnight at 4° C. with 2 units of thrombin (GE Healthcare) and dialyzed against buffer L (0.1 M Mes, 1 mM EGTA, 1 mM MgCL2, 0.1 mM EDTA) with 10% glycerol, and complemented before use to 1 mM GTP and 1 mM DTT and 10 μM PPACK (a potent irreversible inhibitor of thrombin) (Biomol).

[6] = target: T5, recombinant Tau protein (longest isoform) (Homo sapiens, UniProt P10636); test: Sedimentation assay of Tau polymerization in oxidative conditions; assay type: biochemical; settings: Tau 0.5 mg/ml
T5 construct: made in house
Protocol: To investigate the effect of FKBP52 on Tau oligomerization we monitored by sedimentation assay the ability of recombinant Tau protein (here using the longest isoform) to polymerise in oxidative conditions in presence or absence of recombinant FKBP52. After dialysis of Tau (0.5 mg/ml) overnight at 4° C. in Tris 10 mM pH7.4 and centrifugation at 14000 rpm, quantitative western blotting was used to monitor the polymerization of Tau protein. […] This experiment means that Tau in oxidative conditions self polymerise and confirms, as already reported, the importance of cysteines in first step of Tau oligomerization process (Schweers et al 1995).

T5 sequence (P10636 1-441 isoform P10636-8): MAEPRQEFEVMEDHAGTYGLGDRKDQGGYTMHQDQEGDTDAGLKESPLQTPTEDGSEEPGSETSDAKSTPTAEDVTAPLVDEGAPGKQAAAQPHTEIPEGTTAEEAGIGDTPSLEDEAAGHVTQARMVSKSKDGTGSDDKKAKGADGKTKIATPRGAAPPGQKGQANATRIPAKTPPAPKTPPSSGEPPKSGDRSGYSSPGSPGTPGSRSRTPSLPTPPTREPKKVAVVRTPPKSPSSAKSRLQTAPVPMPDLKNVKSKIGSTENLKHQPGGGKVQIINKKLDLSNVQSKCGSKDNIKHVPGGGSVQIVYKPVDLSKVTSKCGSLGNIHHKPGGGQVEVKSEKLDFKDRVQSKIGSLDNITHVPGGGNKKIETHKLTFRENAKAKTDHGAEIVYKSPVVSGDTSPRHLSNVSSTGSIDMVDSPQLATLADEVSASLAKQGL
T3 sequence (P10636 1-441 isoform P10636-8): as above
T4 sequence (P10636 2-441 isoform P10636-8): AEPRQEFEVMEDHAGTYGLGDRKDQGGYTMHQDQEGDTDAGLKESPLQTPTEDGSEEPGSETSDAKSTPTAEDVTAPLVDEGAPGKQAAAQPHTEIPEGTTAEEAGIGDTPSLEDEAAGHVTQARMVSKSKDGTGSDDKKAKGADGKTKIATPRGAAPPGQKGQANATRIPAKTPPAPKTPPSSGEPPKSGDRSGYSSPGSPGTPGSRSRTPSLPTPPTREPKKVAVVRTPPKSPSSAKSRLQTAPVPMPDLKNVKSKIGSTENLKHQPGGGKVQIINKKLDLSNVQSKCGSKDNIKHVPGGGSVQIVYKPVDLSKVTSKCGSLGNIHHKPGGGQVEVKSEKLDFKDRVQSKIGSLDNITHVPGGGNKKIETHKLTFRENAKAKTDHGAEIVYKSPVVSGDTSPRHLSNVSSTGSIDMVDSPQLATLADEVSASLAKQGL
T2 sequence (P10636 1-441 isoform P10636-8): as the sequence (P10636 1-441 isoform P10636-8) above
T1 sequence (P10636 1-441 isoform P10636-8): as above

| FKBP52 retained by HP-Tau [3] | FKBP52 captured by P-Tau [4] | FKBP52 retained by hT40 in the presence of cytosolic proteins (recombinant Tau (hT40); 2.2 μg hT40 with cytosol added just prior to spotting) | FKBP52 retained by hT40 (recombinant Tau (hT40); 2.2 μg non phosphorylated hT40) | retention by spotted Tau (recombinant Tau (hT40); different amounts of hT40 spotted, GST spot as control) | effect on microtubule formation induced by Tau [5] | Tau polymers in pellet ([6]; FKBP52 at 0.1 or 0.25 mg/ml) | Molecule | FKBP52 induction (H7C2 cells [1]) | decrease in neurite length (H7C2 cells [2]) | Tau polymers in pellet ([6]; equimolecular or two times quantities of FKBP52 versus Tau) | Tau in pellet fraction ([6]; oxidative medium, equimolecular coincubation) |
| --- | --- | --- | --- | --- | --- | --- | --- | --- | --- | --- | --- |
|  |  |  |  |  |  |  | C[C@H]1c2cccc(O)c2C(=O)C2=C(O)[C@]3(O)C(=O)C(C(N)=O)=C(O)[C@@H](N(C)C)[C@@H]3[C@@H](O)[C@@H]21 [Dox, doxycycline] | about 4 fold | 40% |  |  |
| 73% | 41% | 6.6% | 3.5% | retained in a dose dependent manner | formation of microtubules was prevented | increasing Tau polymers in pellet | FKBP52: purified recombinant full length immunophilin FKBP52 (FK506-Binding Protein), cleaved from GST with thrombin (protein, UniProt Q02790 1-459, looked up, full-length) MTAEEMKATESGAQSAPLPMEGVDISPKQDEGVLKVIKREGTGTEMPMIGDRVFVHYTGWLLDGTKFDSSLDRKDKFSFDLGKGEVIKAWDIAIATMKVGEVCHITCKPEYAYGSAGSPPKIPPNATLVFEVELFEFKGEDLTEEEDGGIIRRIQTRGEGYAKPNEGAIVEVALEGYYKDKLFDQRELRFEIGEGENLDLPYGLERAIQRMEKGEHSIVYLKPSYAFGSVGKEKFQIPPNAELKYELHLKSFEKAKESWEMNSEEKLEQSTIVKERGTVYFKEGKYKQALLQYKKIVSWLEYESSFSNEEAQKAQALRLASHLNLAMCHLKLQAFSAAIESCNKALELDSNNEKGLFRRGEAHLAVNDFELARADFQKVLQLYPNNKAAKTQLAVCQQRIRRQLAREKKLYANMFERLAEEENKAKAEASSGDHPTDTEMKEEQKSNTAGSQSQVETEA |  |  | prevent the presence of pelletable polymers of Tau | no detectable presence of Tau in pellet fraction |
